The text below walks through data of patent US11767351B2, “Recombinant lectin and uses thereof” (CITY OF HOPE, priority 2017, dated 2023).

Entries after “also recorded” stand apart in the source; their conditions may differ.

Data set [1] can be described thus: Glycan microarray (RayBio Glycan Array 100). Format: binding. Particulars: biotin-labeled SHAs 20 μg/ml (1×) and 2 μg/ml (0.1×), absence of L-rhamnose.
Data set [2] in a line: Solubility of recombinant SHA proteins. Format: physicochemical. Particulars: expressed in E. coli. How it is done: Due to solubility issues various fusion proteins of the recombinant SHA were prepared and expressed in E. coli. Of those, a yeast SUMO(SMT3)-fusion protein was successfully purified for comparing carbohydrate-binding specificity with that of archived SHA. Briefly, SMT3-fused SHA(A108E) was prepared by insertion at the SMT3 and Ulp1 cleavage sites of pET32b/SHA(A108E). E. Cloni® (Lucigen) was transformed by pET32b/SMT3-SHA(A108E). […] SHA(A108E) was cleaved off from SMT3 bound to the column by incubating with UPL1. The resulting SHA(A108E) was purified by gum arabic gels. The authenticity of SHA(A108E) was confirmed by SDS-PAGE and glycan microarray analyses.
Therefore, a novel construct that encoded an E. coli codon-optimized, His-tagged, Trx-SMT3 (SUMO family protein)-SHA(A108E) fusion protein was expressed. This protein was refolded on the nickel NTA column in the presence of D-galactose, and soluble recombinant SHA (rSHA) was cleaved off from the Trx-SMT3 portion using His-tagged Ulp1 (8). The purified rSHA is shown in FIG. 6C, together with archived SHA. […] The glycan binding was measured using two distinct concentrations of biotin-labeled SHAs (1×: 20 μg/ml and 0.1×: 2 μg/ml) in the absence and presence of 0.2 M L-rhamnose as a competitive inhibitor.

Data set [3] in a line: Glycan microarray (RayBio Glycan Array 100). The settings on record: biotin-labeled SHAs 20 μg/ml (1×) and 2 μg/ml (0.1×), absence of L-rhamnose. Format: binding. The source holds these as a separate data set.
Data set [4] is described as follows: Glycan microarray (RayBio Glycan Array 100). Format: binding. Particulars: biotin-labeled SHAs 20 μg/ml (1×) and 2 μg/ml (0.1×), absence of L-rhamnose. This is another data set of the same source.
Data set [5] can be described thus: Glycan microarray (RayBio Glycan Array 100). The settings on record: biotin-labeled SHAs 20 μg/ml (1×) and 2 μg/ml (0.1×), absence of L-rhamnose. Format: binding. The source holds these as a separate data set.
A short description of data set [6]: Glycan microarray (RayBio Glycan Array 100). Format: binding. Particulars: biotin-labeled SHAs 20 μg/ml (1×) and 2 μg/ml (0.1×), absence of L-rhamnose. This is another data set of the same source.
The nature of data set [7]: Glycan microarray (RayBio Glycan Array 100). Format: binding. The settings on record: biotin-labeled SHAs 20 μg/ml (1×) and 2 μg/ml (0.1×), absence of L-rhamnose. This is another data set of the same source.
Data set [8] in a line: Glycan microarray (RayBio Glycan Array 100), whole array profile and L-rhamnose competition. Format: binding. Particulars: for carbohydrate-binding specificity compared with archived SHA: side by side on Glycan Array 100. How it is done: (§1) Glycan microarray analyses—Microarray analysis was performed according to the manufacturer recommendations using RayBio Glycan Array 100 (RayBiotech, Norcross Ga.) slides. Each slide contains four sub-microarrays printed with 100 synthetic glycans. Briefly, 200 μL of 0.1 mg/mL of both archived SHA and rSHA were dialyzed overnight at 4° C. against 1×PBS dialysis buffer to avoid contaminating samples with amines prior to biotinylation. Dialyzed samples were incubated with biotin-containing reaction solution at 22° C. for 30 min. Sub-arrays were blocked for 30 min at 22° C. After biotinylated SHA samples were diluted with 1×PBS, 400 μL of each sample was added to each sub-array. Slide #1 sub-arrays were incubated with 400 μL of 20 μg/mL (1×) or 2 μg/mL (0.1×) SHA, in the absence or presence of 0.2 M L-Rhamnose. Slide #2 sub-arrays were incubated with 400 μL of 20 μg/mL (1×) or 2 μg/mL of rSHA (0.1×), in the absence or presence of 0.2 M L-rhamnose. Slides were incubated for 16 h at 4° C. for highest intensities. Washing was performed according to the manufacturer's protocol, followed by incubation with Cy3 dye-conjugated streptavidin. The slides were incubated at 22° C. for 1 h with gentle shaking, then washed multiple times as recommended. The signals were visualized using an Agilent DNA microarray scanner (Model G2505C; Agilent, Santa Clara, Calif.) at 532 nm for Cy3. Data extraction and analysis was performed after subtraction of the background and normalization to the internal references provided by the manufacturer, using an ImageJ Protein Array Analyzer software (28).
(§2) Therefore, a novel construct that encoded an E. coli codon-optimized, His-tagged, Trx-SMT3 (SUMO family protein)-SHA(A108E) fusion protein was expressed. […] The glycan binding was measured using two distinct concentrations of biotin-labeled SHAs (1×: 20 μg/ml and 0.1×: 2 μg/ml) in the absence and presence of 0.2 M L-rhamnose as a competitive inhibitor.

Data set [9] can be described thus: Glycan microarray (RayBio Glycan Array 100). The settings on record: biotin-labeled SHAs 20 μg/ml (1×) and 2 μg/ml (0.1×), absence of L-rhamnose. Format: binding. The source holds these as a separate data set.
The nature of data set [10]: Glycan microarray (RayBio Glycan Array 100). The settings on record: biotin-labeled SHAs 20 μg/ml (1×) and 2 μg/ml (0.1×), absence of L-rhamnose. Format: binding. This is another data set of the same source.
Data set [11] can be described thus: Glycan microarray (RayBio Glycan Array 100). Format: binding. Particulars: biotin-labeled SHAs 20 μg/ml (1×) and 2 μg/ml (0.1×), absence of L-rhamnose. The source holds these as a separate data set.
The nature of data set [12]: Glycan microarray (RayBio Glycan Array 100). Format: binding. Particulars: biotin-labeled SHAs 20 μg/ml (1×) and 2 μg/ml (0.1×), absence of L-rhamnose. This is another data set of the same source.
Data set [13] is described as follows: Glycan microarray (RayBio Glycan Array 100). Format: binding. Particulars: glycans listed in Table 4. How it is done: as §1, with “Washing was performed according to the manufacturer's protocol, followed by incubation with Cy3 dye-conjugated streptavidin. The slides were incubated at 22° C. for 1 h with gentle shaking, then washed multiple times as recommended. The signals were visualized using an Agilent DNA microarray scanner (Model G2505C; Agilent, Santa Clara, Calif.) at 532 nm for Cy3. Data extraction and analysis was performed after subtraction of the background and normalization to the internal references provided by the manufacturer, using an ImageJ Protein Array Analyzer software (28).” left out
as §2

Data set [14] in a line: Glycan microarray (RayBio Glycan Array 100). Format: binding. The settings on record: biotin-labeled SHAs 20 μg/ml (1×) and 2 μg/ml (0.1×), absence of L-rhamnose. The source holds these as a separate data set.

B1: rSHA: recombinant SHA(A108E) expressed in E. coli, cleaved from Trx-SMT3 fusion; SEQ ID NO: 25 (protein)
chain: ARTVCYAAHVEGIGWQGAVCDGAVAGTTGQSRRMEAAVIATSGTGGVCANAHLADIGWQGWACAADGKAVTVGTTGQSRRMEALGLQVGNGSVAAQAHVADYGWLNAEGGNPVYVGTTGQSRRMEAVRIWV
modifications: recombinant SHA
For B1, the “binding to Gal-α-1,4-Gal-β-1,4-Glc-β-” value in data set [1] is given as “weaker, but still significant, binding”. For the same molecule, in [2], the solubility entry is on record as “soluble”. Further, the “binding signal to Gal-α-1,3-Gal-β-1,3-GlcNAc-β-” value in data set [3] is “Strong signals”. The “binding signal to Blood B antigen tetrasaccharide” value in data set [4] was “Strong signals”. Moreover, the “binding signal to Blood B antigen trisaccharide” value in [5] is listed as “Strong signals”. Besides, the “binding to GaINAc-β-1,3-Gal-β-1,4-Glc-β-” value in data set [6] was “weaker, but still significant, binding”. Moreover, the “binding signal to Gal-α-1,4-Gal-β-1,3-GlcNAc-β-” value in [7] is given as “Strong signals”. Besides, the “binding to all glycans, except α-Rha, in the presence of L-rhamnose” value in [8] (0.2 M L-rhamnose as competitive inhibitor) is “competitively inhibited”. For the same molecule, the “carbohydrate-binding specificity compared with archived SHA” value is listed as “identical carbohydrate-binding specificities; also recorded: same glycan specificity profile” in [8] and “same carbohydrate-binding specificity” in data set [8] (listed as SHA(A108E)). Also, in [9], the “binding signal to Gal-α-1,3-Gal-β-1,4-Glc-β-” value was “Strong signals”. For the same molecule, the “binding to Gal-α-1,4-Gal-β-1,4-GlcNAc-β-” value in data set [10] is listed as “weaker, but still significant, binding”. The “binding signal to Gal-α-1,3-Gal-β-” value in [11] is given as “Strong signals”. In addition, the “binding signal to β-Gal-” value in data set [12] was “Strong signals”. Moreover, the “binding to the remaining 89 chip-immobilized glycans” value in [13] was “did not bind”. Further, the “binding signal to α-Rha-” value in data set [14] is “Strong signals”.
